Here are results for three molecules from US20230192830A1.

What all share (conditions): remark: other sources report otherwise
One assay deals with iPHF, P10636. The experiment in a line: Octet BLI, antibody on biosensor, iPHF in solution.
Assay [1] deals with T1, enriched paired helical filament tau protein (ePHF) (human), P10636. Put plainly: direct ELISA, ePHF coated.
Assay [2] addresses T1, enriched paired helical filament tau …. Put plainly: follow up analysis, method not stated.

T1 sequence (P10636 other isoform, or with tags, fused parts or gaps limits assumed): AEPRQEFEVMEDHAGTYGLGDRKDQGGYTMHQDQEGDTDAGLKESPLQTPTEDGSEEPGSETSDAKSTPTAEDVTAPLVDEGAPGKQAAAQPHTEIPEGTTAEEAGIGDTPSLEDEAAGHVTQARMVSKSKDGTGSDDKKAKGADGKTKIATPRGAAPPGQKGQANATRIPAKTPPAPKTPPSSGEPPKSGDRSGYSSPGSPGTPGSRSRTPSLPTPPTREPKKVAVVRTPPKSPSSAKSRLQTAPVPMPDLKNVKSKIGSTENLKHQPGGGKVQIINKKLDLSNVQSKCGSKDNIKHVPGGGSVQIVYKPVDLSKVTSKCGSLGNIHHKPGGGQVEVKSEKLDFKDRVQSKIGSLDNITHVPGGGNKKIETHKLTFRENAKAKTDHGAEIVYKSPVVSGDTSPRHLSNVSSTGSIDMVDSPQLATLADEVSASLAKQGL
Sequence of iPHF, P10636 (P10636 other isoform, or with tags, fused parts or gaps): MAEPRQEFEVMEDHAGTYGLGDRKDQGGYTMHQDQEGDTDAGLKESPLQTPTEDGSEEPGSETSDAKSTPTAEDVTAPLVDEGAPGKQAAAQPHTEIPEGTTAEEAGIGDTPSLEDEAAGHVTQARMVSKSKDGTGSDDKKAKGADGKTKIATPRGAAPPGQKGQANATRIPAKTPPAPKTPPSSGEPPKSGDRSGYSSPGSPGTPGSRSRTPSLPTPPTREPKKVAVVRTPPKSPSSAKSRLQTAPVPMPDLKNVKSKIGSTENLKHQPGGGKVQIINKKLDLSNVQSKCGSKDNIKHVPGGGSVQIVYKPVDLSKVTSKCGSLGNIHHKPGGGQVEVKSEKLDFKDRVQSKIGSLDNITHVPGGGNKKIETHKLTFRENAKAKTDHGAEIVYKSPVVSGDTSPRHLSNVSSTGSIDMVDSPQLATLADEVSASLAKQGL

B1: V0022 (antibody, mouse IgG1, V domains shown)
VH: QVQLQQPGTELVKPGSSVNLSCKASGFTFTRYWMHWVKERPGHGLEWIGNINPNNGGTDFNEKFKNKATLTVHKSSTTVFIQLSSLTSEDSAVYYCARGTGTGAMDYWGQGTSVTVSS
VL: DVVMTQTPLSLPVSLGDQASISCRSSQSLVHNNGITYLYWYLQKPGQSPKLLIYRVSNRFSGVPDRFGGSGSGTDFTLKISRVEAEDLGVYFCFQGTHVPRTFGGGTKLEIK
B1 registered a Kd in the assay with iPHF, P10636 of 0.3 nM. This counts as sub-nanomolar.

B2: V0024 (antibody, mouse IgG1, V domains shown)
VH: QVQLQQPGTELVKPGASVKLSCKASGYTFTRFWMHWVKQRPGQGLEWIGNINPNNGGTDNNERFKSKATLTVDRSSSTAYMQLSSLTSEDSAVYYCARGTGTGAMDYWGQGTSVTVSS
VL: DVVMTQTPLSLPVSLGDQASISCRSSQSLVHSNGNTHLYWYLQKPGQSPKLLIYRVSSRFSGVPDRFSGSGSGTDFTLKISRVEAEDLGVYFCFQGTHVPRTFGGGTKLEIK
In assay [1], B2 had an EC50 of 0.125 nM. The selectivity for ePHF over wild type tau in assay [2] is greater than 100 fold.

B3: V0023 (antibody, mouse IgG1, V domains shown)
VH: QVQLQQPGTELVKPGASVKLSCKASGYTFTIFWMHWVKQRPGHGLEWIGKINPNNGGGDYNEKFKSKATLTVDKSSTTAYLQLSSLTSEDSAVYYCARGTGTGAMDYWGQGTSVTVSS
VL: DVVMTQTPLSLPVSLGDHASISCRSSQSLVHSNGITHLYWYLQRPGQTPKLLIYRVSNRFSGVPDRFSGSGSGTDFTLKISSVEAEDLGVYFCFQGTHVPRTFGGGTKLEIE
Regarding B3, the Kd with iPHF, P10636 amounted to 4 nM. That is a single-digit nanomolar value.
